From patent publication US20210196834A1

Molecular target: human SEZ6-His (soluble hSEZ6-his antigen) (human) (UniProt Q53EL9)
Assay: SPR, Biacore T200, human SEZ6-His captured on anti-His chip, Fab as analyte

UniProt Q53EL9, sequence (Q53EL9 20-925): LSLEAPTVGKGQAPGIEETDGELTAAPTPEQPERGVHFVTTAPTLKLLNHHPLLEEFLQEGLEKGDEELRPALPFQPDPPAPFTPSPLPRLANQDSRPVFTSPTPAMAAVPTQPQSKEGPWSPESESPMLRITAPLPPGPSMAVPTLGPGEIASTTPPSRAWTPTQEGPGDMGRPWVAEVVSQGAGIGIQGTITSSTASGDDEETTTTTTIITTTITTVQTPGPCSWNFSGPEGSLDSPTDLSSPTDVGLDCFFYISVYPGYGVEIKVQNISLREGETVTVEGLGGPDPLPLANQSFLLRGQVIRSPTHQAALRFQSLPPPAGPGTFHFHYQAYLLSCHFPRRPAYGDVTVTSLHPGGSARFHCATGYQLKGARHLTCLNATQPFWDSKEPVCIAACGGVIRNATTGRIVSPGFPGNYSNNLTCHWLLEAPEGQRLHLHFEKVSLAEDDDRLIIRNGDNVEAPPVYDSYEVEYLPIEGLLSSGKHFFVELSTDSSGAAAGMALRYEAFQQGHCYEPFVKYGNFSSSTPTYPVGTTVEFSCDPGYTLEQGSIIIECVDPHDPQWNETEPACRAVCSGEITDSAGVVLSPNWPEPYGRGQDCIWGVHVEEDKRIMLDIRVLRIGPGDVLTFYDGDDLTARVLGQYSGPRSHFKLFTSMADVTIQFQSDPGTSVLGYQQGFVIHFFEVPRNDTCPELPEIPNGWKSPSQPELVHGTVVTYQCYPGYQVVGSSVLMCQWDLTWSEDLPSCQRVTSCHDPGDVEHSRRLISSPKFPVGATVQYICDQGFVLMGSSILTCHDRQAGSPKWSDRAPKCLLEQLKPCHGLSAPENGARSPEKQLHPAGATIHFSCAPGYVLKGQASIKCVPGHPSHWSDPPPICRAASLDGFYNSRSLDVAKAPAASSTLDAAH

Kd: 4.8 nM | koff: 0.006 s⁻¹ | kon: 1.3e+06 M⁻¹ s⁻¹
B1: MutA (S60N) Fab (Fab construct of the hSEZ6-1.ss1 antibody with the S60N mutation) (Fab, V domains shown)
VH: EVQLVQSGAEVKKPGESLKISCKGSGYSFTSSWINWVRQMPGKGLEWMGRIYPGEGDTNYNGNFEGQVTISADKSISTAYLQWSSLKASDTAMYYCTRGLVMDYWGQGTLVTVSS
VL: EIVLTQSPATLSLSPGERATLSCRASQSVDYNGISYMHWYQQKPGQAPRLLIYAASNVQSGIPARFSGSGSGTDFTLTISSLEPEDFAVYYCQQSIEDPPTFGGGTKVEIK
